The experiment deals with T1, PYR1 (Arabidopsis thaliana, UniProt O49686).
T1 construct: expressed in transfected cells; host or cells: S. cerevisiae strain Y190
T1 sequence (O49686 1-191): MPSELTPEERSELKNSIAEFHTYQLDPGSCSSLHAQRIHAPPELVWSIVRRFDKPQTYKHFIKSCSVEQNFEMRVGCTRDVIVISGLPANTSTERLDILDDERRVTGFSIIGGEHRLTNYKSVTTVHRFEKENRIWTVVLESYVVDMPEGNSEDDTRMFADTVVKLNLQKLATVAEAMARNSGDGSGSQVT
The experiment in a line: Yeast two hybrid of pACT-HAB1 site saturation mutants with pBD-PYR1 on 10 μM ABA, β-galactosidase staining. Type of experiment: cell-based. More on the design: key: x: Mutations in HAB1 that disrupt HAB1 interaction with PYR1. The following applies: S. cerevisiae Y190, 10 μM ABA; dead = lack of detectable staining in comparison to wild type control. The text has this:
To systematically define mutations in HAB1 that disrupt its binding to PYR1, we used site saturation mutagenesis to create a collection all possible single amino acid substitutions in 20 residues lining the PYR1 binding interface, and then assayed the ability of each mutant to bind PYR1 using the yeast two hybrid assay described above. We targeted the following residues for mutagenesis: R199, 5200, E201, E203, H245, G246, G247, S322, E323, T324, K381, I383, Q384, W385, Q386, R389, F391, G392, V393, and Y404. To create the collection of mutations, mutagenic “NNK” site directed mutagenesis primers were synthesized for each of the 20 positions and the primers used in QuickChange site-directed mutagenesis reactions using a previously described pACT-HAB1 template (Park et al., 2009). We note that this clone uses a HAB1 cDNA lacking its three N-terminal amino acids. The reaction products were digested with DpnI, and transformed into competent Escherichia coli DH5α cells and plasmid DNA for 96 colonies per site was isolated using Bioneer AccuPrep® Plasmid Mini Extraction Kit (Alameda, Calif.) and sequenced to identify mutants. This process identified most of the 19 desired mutations per target site; the remaining mutations were constructed directly using specific mutagenic primers. To interrogate the effects of the mutations on PYR1-HAB1 interactions, the mutant clones were individually transformed into S. cerevisiae strain Y190 containing pBD-PYR1 (Park et al., 2009). Yeast transformants were selected for the presence of plasmids on selective SD (-Leu,-Trp) plates and then spotted onto SD (-Leu,-Trp) agar plates supplemented with 10 μM ABA. After incubating the test plates at 30° C. for two days, the colonies were lysed with chloroform and stained to reveal […] expression levels. “Dead” mutants were defined by lack of detectable staining in comparison to a wild type pBD-PYR1/pACT-HAB1 control. This screening effort defined 163 mutations that disrupt the ABA-induced PYR1/HAB1 interaction (Table 2).

B1: G392V: HAB1 mutant (protein, UniProt Q9CAJ0 23-511, looked up, variant G392V)
Protein phosphatase 2C 16: SPVEITQLKNVTDAADLLSDSENQSFCNGGTECTMEDVSELEEVGEQDLLKTLSDTRSGSSNVFDEDDVLSVVEDNSAVISEGLLVVDAGSELSLSNTAMEIDNGRVLATAIIVGESSIEQVPTAEVLIAGVNQDTNTSEVVIRLPDENSNHLVKGRSVYELDCIPLWGTVSIQGNRSEMEDAFAVSPHFLKLPIKMLMGDHEGMSPSLTHLTGHFFGVYDGHGGHKVADYCRDRLHFALAEEIERIKDELCKRNTGEGRQVQWDKVFTSCFLTVDGEIEGKIGRAVVGSSDKVLEAVASETVGSTAVVALVCSSHIVVSNCGDSRAVLFRGKEAMPLSVDHKPDREDEYARIENAGGKVIQWQGARVFVVLAMSRSIGDRYLKPYVIPEPEVTFMPRSREDECLILASDGLWDVMNNQEVCEIARRRILMWHKKNGAPPLAERGKGIDPACQAAADYLSMLALQKGSKDNISIIVIDLKAQRKFKTRT
On to B1, for which the “Mutations in HAB1 that disrupt HAB1 interaction with PYR1” value (from here on “Mutations”) is “x”.

B2: G392W: HAB1 mutant (protein, UniProt Q9CAJ0 23-511, looked up, variant G392W)
Protein phosphatase 2C 16: SPVEITQLKNVTDAADLLSDSENQSFCNGGTECTMEDVSELEEVGEQDLLKTLSDTRSGSSNVFDEDDVLSVVEDNSAVISEGLLVVDAGSELSLSNTAMEIDNGRVLATAIIVGESSIEQVPTAEVLIAGVNQDTNTSEVVIRLPDENSNHLVKGRSVYELDCIPLWGTVSIQGNRSEMEDAFAVSPHFLKLPIKMLMGDHEGMSPSLTHLTGHFFGVYDGHGGHKVADYCRDRLHFALAEEIERIKDELCKRNTGEGRQVQWDKVFTSCFLTVDGEIEGKIGRAVVGSSDKVLEAVASETVGSTAVVALVCSSHIVVSNCGDSRAVLFRGKEAMPLSVDHKPDREDEYARIENAGGKVIQWQGARVFWVLAMSRSIGDRYLKPYVIPEPEVTFMPRSREDECLILASDGLWDVMNNQEVCEIARRRILMWHKKNGAPPLAERGKGIDPACQAAADYLSMLALQKGSKDNISIIVIDLKAQRKFKTRT
As for B2, the “Mutations” value is reported as “x”.

B3: G392C: HAB1 mutant (protein, UniProt Q9CAJ0 23-511, looked up, variant G392C)
Protein phosphatase 2C 16: SPVEITQLKNVTDAADLLSDSENQSFCNGGTECTMEDVSELEEVGEQDLLKTLSDTRSGSSNVFDEDDVLSVVEDNSAVISEGLLVVDAGSELSLSNTAMEIDNGRVLATAIIVGESSIEQVPTAEVLIAGVNQDTNTSEVVIRLPDENSNHLVKGRSVYELDCIPLWGTVSIQGNRSEMEDAFAVSPHFLKLPIKMLMGDHEGMSPSLTHLTGHFFGVYDGHGGHKVADYCRDRLHFALAEEIERIKDELCKRNTGEGRQVQWDKVFTSCFLTVDGEIEGKIGRAVVGSSDKVLEAVASETVGSTAVVALVCSSHIVVSNCGDSRAVLFRGKEAMPLSVDHKPDREDEYARIENAGGKVIQWQGARVFCVLAMSRSIGDRYLKPYVIPEPEVTFMPRSREDECLILASDGLWDVMNNQEVCEIARRRILMWHKKNGAPPLAERGKGIDPACQAAADYLSMLALQKGSKDNISIIVIDLKAQRKFKTRT
Regarding B3, the “Mutations” value was “x”.

B4: G392Y: HAB1 mutant (protein, UniProt Q9CAJ0 23-511, looked up, variant G392Y)
Protein phosphatase 2C 16: SPVEITQLKNVTDAADLLSDSENQSFCNGGTECTMEDVSELEEVGEQDLLKTLSDTRSGSSNVFDEDDVLSVVEDNSAVISEGLLVVDAGSELSLSNTAMEIDNGRVLATAIIVGESSIEQVPTAEVLIAGVNQDTNTSEVVIRLPDENSNHLVKGRSVYELDCIPLWGTVSIQGNRSEMEDAFAVSPHFLKLPIKMLMGDHEGMSPSLTHLTGHFFGVYDGHGGHKVADYCRDRLHFALAEEIERIKDELCKRNTGEGRQVQWDKVFTSCFLTVDGEIEGKIGRAVVGSSDKVLEAVASETVGSTAVVALVCSSHIVVSNCGDSRAVLFRGKEAMPLSVDHKPDREDEYARIENAGGKVIQWQGARVFYVLAMSRSIGDRYLKPYVIPEPEVTFMPRSREDECLILASDGLWDVMNNQEVCEIARRRILMWHKKNGAPPLAERGKGIDPACQAAADYLSMLALQKGSKDNISIIVIDLKAQRKFKTRT
For B4, the “Mutations” value is “x”.

Values taken from patent publication US10919943B2, “Mutant proteins enabling agrochemical control of plant gene expression” (The Regents of the University of California, priority 2016, dated 2021).
